Laboratory results published in patent publication US20130184211A1 (NEW YORK UNIVERSITY, published 2013).

B1: FGF23 C-terminal region peptide (S180 to S205), FGF23^180-205 (peptide)
peptide: SAEDDSERDPLNVLKPRARMTPAPAS
notes: Made by solid phase synthesis (GenScript)
B2: N-terminally hexahistidine-tagged 72-amino acid C-terminal tail of human FGF23 (S180 to I251), FGF23^180-251 (peptide)
peptide: SAEDDSERDPLNVLKPRARMTPAPASCSQELPSAEDNSPMASDPLGVVRGGRVNTHAGGTGPEGCRPFAKFI
notes: Expressed in E. coli; also called FGF23 C-terminal tail peptide; C-terminal tail of FGF23; not shown: N-terminal hexahistidine tag (six His)

Key:
[1] = biological target: T1, 1:1 binary complex of the ectodomains of FGFR1c and Klotho (human; murine, UniProt O35082 35-982); test: SPR competition; competitor FGF23^28-251 immobilized, fixed FGFR1c-Klotho complex
T1 construct: range 35-982; also called FGFR1c-Klotho complex; binary FGFR1c-Klotho complex; not shown: C-terminal FLAG tag
T1 sequence 1: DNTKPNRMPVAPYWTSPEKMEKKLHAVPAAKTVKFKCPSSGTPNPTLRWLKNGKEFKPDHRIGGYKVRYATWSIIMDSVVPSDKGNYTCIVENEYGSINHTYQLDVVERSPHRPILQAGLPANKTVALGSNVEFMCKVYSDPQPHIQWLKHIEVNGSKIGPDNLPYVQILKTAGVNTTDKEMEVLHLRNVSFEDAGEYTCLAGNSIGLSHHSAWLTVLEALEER
T1 sequence 2: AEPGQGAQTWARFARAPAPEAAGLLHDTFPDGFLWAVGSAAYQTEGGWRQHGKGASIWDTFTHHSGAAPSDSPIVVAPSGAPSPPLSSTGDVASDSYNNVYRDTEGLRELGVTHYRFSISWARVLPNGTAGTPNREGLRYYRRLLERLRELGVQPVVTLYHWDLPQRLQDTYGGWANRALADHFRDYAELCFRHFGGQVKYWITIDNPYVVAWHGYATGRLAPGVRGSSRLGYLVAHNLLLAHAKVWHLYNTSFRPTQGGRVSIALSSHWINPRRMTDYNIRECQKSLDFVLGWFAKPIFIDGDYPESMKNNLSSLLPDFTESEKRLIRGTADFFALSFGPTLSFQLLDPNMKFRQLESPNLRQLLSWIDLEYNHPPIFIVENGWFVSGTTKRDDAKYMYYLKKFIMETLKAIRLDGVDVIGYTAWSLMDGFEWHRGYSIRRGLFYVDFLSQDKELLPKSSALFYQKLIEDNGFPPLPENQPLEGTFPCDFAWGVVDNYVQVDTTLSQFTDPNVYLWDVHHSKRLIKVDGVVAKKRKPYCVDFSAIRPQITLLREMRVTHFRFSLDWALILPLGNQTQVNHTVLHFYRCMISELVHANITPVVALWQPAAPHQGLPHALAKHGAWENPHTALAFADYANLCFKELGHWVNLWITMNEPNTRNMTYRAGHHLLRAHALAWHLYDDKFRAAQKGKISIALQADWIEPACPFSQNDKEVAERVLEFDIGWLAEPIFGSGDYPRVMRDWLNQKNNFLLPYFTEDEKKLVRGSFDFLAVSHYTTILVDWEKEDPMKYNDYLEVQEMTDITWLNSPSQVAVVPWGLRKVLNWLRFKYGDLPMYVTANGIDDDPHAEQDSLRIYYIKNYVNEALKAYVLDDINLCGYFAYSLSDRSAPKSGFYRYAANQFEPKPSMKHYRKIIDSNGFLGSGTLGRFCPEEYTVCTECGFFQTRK
Description: Increasing concentrations of FGF23²⁸⁻²⁵¹ (0-50 nM) were mixed with a fixed concentration of 1:1 complex of the ectodomains of FGFR1c and Klotho (15 nM and 20 nM, respectively) in HBS-EP buffer, and the mixtures were passed over the FGF23 chip. In the other—reverse—assay, FGF23¹⁸⁰⁻²⁵¹ was immobilized on a chip (˜48.4 fmole/mm² of flow channel). Increasing concentrations of FGF23²⁸⁻²⁵¹ (0-50 nM) were mixed with a fixed concentration of 1:1 complex of the ectodomains of FGFR1c and Klotho (20 nM) in HBS-EP buffer, and the mixtures were passed over the chip. As a control, competition of FGF23 C-terminal tail peptide in solution with immobilized FGF23 C-terminal tail peptide for binding to the binary FGFR1c-Klotho complex was studied. Increasing concentrations of FGF23¹⁸⁰⁻²⁵¹ (0-400 nM) were mixed with a fixed concentration of 1:1 complex of the ectodomains of FGFR1c and Klotho (20 nM) in HBS-EP buffer, and the mixtures were passed over the FGF23¹⁸⁰⁻²⁵¹ chip.
To fully nail down that the C-terminal tail of FGF23 mediates FGF23 binding to the binary FGFR1c-Klotho complex, a fixed concentration of FGFR1c-Klotho was mixed with increasing concentrations of FGF23¹⁸⁰⁻²⁵¹, and the mixtures were passed over the FGF23 chip. Mixtures of FGF23²⁸⁻²⁵¹ with FGFR1c-Klotho were used as a control. […] Similar results were obtained using the “reverse” SPR assay format, where FGF23¹⁸⁰⁻²⁵¹ was immobilized on a chip and mixtures of a fixed concentration of FGFR1c-Klotho complex with increasing concentrations of FGF23²⁸⁻²⁵¹ were passed over the chip (FIG. 3E). Mixtures of FGF23¹⁸⁰⁻²⁵¹ with FGFR1c-Klotho were used as a control (FIG. 3F). To verify the specificity of the interaction between the FGF23 C-terminal tail and the FGFR1c-Klotho complex, the C-terminal tail peptide of FGF21 and FGFR1c-Klotho were mixed at molar ratios of 6:1 and 10:1, and the mixtures were injected over a FGF23 chip.

[2] = biological target: T2, complex of V5-tagged FGFR1c and FLAG-tagged membrane-spanning murine Klotho isolated from transfected … (murine, UniProt O35082 35-1014); test: co-immunoprecipitation competition; competitor FGF23^28-251 (1 nM)
T2 construct: Isolated from cell lysate on anti-V5 agarose beads; also called FGFR1c-Klotho complex (co-immunoprecipitated); binary FGFR-Klotho complex; not shown: FGFR1c, V5-tagged, expressed from a vector in HEK293-Klotho cells
Source text: (§1) Co-immunoprecipitation may also be used to determine that an agent specifically binds the binary FGFR-Klotho complex. One aspect of the present invention utilizes co-immunoprecipitation studies. Subconfluent cultures of a HEK293 cell line ectopically expressing the FLAG-tagged membrane-spanning form of murine Klotho were transfected with expression vectors for V5-tagged FGFR1c, FGFR3c, or FGFR4. Two days later, the cells were lysed, and FGFR-Klotho complexes were isolated from cell lysate using anti-V5 agarose beads. The beads were then incubated with either FGF23¹⁸⁰⁻²⁵¹ or FGF23²⁸⁻²⁵¹ alone, or with mixtures of FGF23²⁸⁻²⁵¹ with either increasing FGF23¹⁸⁰⁻²⁵¹ or increasing FGF23¹⁸⁰⁻²⁰⁵. Bead-bound proteins were resolved on SDS-polyacrylamide gels, transferred to nitrocellulose membranes, and labeled using antibodies to Klotho, FGF23, and V5 epitope tag.

[3] = biological target: T3, complex of V5-tagged FGFR3c and FLAG-tagged membrane-spanning murine Klotho isolated from transfected … (murine, UniProt O35082 35-1014); test: as above
T3 construct: Isolated from cell lysate on anti-V5 agarose beads; also called FGFR3c-Klotho complex; binary FGFR-Klotho complex; not shown: FGFR3c, V5-tagged, expressed from a vector in HEK293-Klotho cells
Source text: as §1

[4] = biological target: T4, complex of V5-tagged FGFR4 and FLAG-tagged membrane-spanning murine Klotho isolated from transfected … (murine, UniProt O35082 35-1014); test: as above
T4 construct: Isolated from cell lysate on anti-V5 agarose beads; also called FGFR4-Klotho complex; binary FGFR-Klotho complex; not shown: FGFR4, V5-tagged, expressed from a vector in HEK293-Klotho cells
Source text: as §1

T3 sequence (O35082 35-1014, one chain of several): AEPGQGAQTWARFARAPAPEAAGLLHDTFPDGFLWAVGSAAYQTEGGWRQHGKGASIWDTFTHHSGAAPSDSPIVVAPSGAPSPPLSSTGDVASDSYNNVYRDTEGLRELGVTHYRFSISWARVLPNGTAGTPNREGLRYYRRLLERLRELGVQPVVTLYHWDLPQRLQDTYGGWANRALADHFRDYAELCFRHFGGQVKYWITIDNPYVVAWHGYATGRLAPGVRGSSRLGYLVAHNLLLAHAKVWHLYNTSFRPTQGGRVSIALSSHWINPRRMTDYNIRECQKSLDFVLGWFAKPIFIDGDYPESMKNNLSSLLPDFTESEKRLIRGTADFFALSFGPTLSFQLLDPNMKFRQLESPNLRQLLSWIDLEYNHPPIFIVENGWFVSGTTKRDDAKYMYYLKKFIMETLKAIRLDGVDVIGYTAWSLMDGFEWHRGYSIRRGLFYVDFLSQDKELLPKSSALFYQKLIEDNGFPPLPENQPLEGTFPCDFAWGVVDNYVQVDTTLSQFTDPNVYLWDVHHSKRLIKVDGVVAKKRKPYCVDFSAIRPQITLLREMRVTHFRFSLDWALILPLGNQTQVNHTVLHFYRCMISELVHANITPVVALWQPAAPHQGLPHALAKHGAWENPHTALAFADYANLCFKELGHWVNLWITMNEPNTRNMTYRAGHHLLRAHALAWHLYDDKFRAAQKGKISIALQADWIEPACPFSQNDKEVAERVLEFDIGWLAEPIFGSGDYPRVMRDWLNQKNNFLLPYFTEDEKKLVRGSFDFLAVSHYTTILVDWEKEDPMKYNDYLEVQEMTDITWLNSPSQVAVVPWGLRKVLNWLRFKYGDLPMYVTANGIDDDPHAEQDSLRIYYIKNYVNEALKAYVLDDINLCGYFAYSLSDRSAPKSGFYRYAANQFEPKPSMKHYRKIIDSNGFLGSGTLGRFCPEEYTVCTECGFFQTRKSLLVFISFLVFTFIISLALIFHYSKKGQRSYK

Binder	molar excess over FGFR1c-Klotho complex at half-maximum inhibition [1]	molar excess over FGF23^28-251 that completely blocked its binding [2]	molar excess over FGF23^28-251 that completely blocked its binding [3]	molar excess over FGF23^28-251 that completely blocked its binding [4]
B1	5.7 fold molar excess	–	–	–
B2	3.3 fold molar excess	76 fold molar excess	76 fold molar excess	76 fold molar excess
